T1: human BCMA with a His tag (ACROBiosystems, Catalog No.: BCA-H522y) (human)
T1 construct: Bought His-tagged recombinant protein; also called huBCMA-His; Recombinant human BCMA
T1 chain: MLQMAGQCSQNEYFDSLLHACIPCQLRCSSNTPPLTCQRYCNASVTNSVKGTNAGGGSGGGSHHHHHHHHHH

T2: mouse BCMA with a His tag (ACROBiosystems, Catalog No.: BCA-M52H3) (mouse)
T2 construct: Bought His-tagged recombinant protein
T2 chain: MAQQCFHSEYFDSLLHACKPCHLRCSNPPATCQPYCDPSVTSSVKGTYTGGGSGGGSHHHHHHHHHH

T3: BCMA on cells (293T cells transfected with BCMA; H929, MM.1S and U266 cell lines expressing BCMA) (human, UniProt Q02223 1-184)
T3 construct: H929, MM.1S and U266 carry the native protein; also called B-cell Maturation Antigen; TNFRSF17
T3 sequence: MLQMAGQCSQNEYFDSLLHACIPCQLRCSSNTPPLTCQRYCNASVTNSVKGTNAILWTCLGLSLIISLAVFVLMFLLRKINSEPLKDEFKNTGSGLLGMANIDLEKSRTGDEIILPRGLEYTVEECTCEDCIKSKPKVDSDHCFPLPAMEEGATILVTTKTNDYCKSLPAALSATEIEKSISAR


Columns and labels:
[1] = biological target: T1, human BCMA with a His tag …; test: SPR, Biacore T200
Experimental: The binding affinity of select anti-BCMA was measured on a surface plasmon resonance (SPR) instrument, Biacore T200™, against human BCMA by a method known in the art.
In experiments performed essentially as described above, a subset of anti-human BCMA antibodies of the present disclosure bind human BCMA with a His tag (ACROBiosystems, Beijing, China, Catalog No.: BCA-H522y, SEQ ID NO:2) with affinity shown in Table 6.

[2] = biological target: T1, human BCMA with a His tag …; test: ELISA, plate-coated human BCMA-His
Experimental: (§1) The recombinantly expressed antibodies were used to assess binding activity to BCMA of different species origins by conventional ELISA according to the known art. Recombinant human BCMA, cyno BCMA, and mouse BCMA were coated onto ELISA plates to detect binding at serially diluted concentrations of the anti-BCMA antibody preparations.
(§2) The ability for antibodies of the present disclosure to bind human BCMA was measured with an ELISA assay. For the BCMA binding assay, a 96-well plate (Nunc) is coated with human BCMA with a His tag (ACROBiosystems, Catalog No.: AC108P1-180611F2-Bulk, SEQ ID NO:2) at 0.2 μg/well overnight at 4° C. Wells are blocked for 2 h with blocking buffer (PBS containing 3% bovine serum albumin). Wells are washed three times with PBS containing 0.1% Tween-20. Anti-human BCMA antibodies of the present disclosure or control IgG (100 μL) is then added and incubated at room temperature for 1 h. After washing, the plate is incubated with 100 μL of goat anti-mouse IgG Fcγ Fragment Specific-HRP conjugate (Jackson ImmunoResearch) at room temperature for 1 h. The plates are washed and then incubated with 100 μL of 3,3′,5,5′-tetra-methylbenzidine. The absorbance at 450 nm is read on a microplate reader. The half maximal effective concentration (EC50) is calculated using GraphPad Prism 6 software.
In experiments performed essentially as described above, anti-human BCMA antibodies of the present disclosure bind human BCMA with a His tag (ACROBiosystems, Beijing, China, Catalog No.: BCA-H522y, SEQ ID NO:2) with an EC50 values shown in Table 3.

[3] = biological target: T2, mouse BCMA with a His tag …; test: ELISA, plate-coated mouse BCMA-His
Experimental: as §1, §2
In experiments performed essentially as described above, anti-human BCMA antibodies of the present disclosure bind mouse BCMA with a His tag (ACROBiosystems, Beijing, China, Catalog No.: BCA-M52H3, SEQ ID NO:109) with an EC50 values shown in Table 5.

[4] = biological target: T3, BCMA on cells (293T cells transfected …); test: flow cytometry, H929 cells
Experimental: A cell line expressing BCMA, H929, was used to assess binding by anti-BCMA antibodies on the native protein on the cell surface by flow cytometry according to the known art. A subset of anti-human BCMA antibodies were assayed for binding to H929 and the fraction of cells bound the labeled antibody above background defined by control is shown in Table 8.

[5] = biological target: T3, BCMA on cells (293T cells transfected …); test: flow cytometry, 293T cells transfected with BCMA, above parental 293T background
[6] = biological target: T3, BCMA on cells (293T cells transfected …); test: flow cytometry, H929 cells; remark: listed apart in the source

| Binder | Kd [1] | koff [1] | kon [1] | EC50 [2] | EC50 [3] | Positive (%) [4] | Positive (%) [5] | Mean fluorescent intensity [6] |
| --- | --- | --- | --- | --- | --- | --- | --- | --- |
| SCT-Aa08(m/m) (antibody, V domains shown, Full IgG format: mouse IgG1 heavy chain constant region, mouse kappa light chain constant region) VH: QVQLQQSDAELVKPGASVKISCKVSGYTFIDHTIHWMKQRPEQGLEWIGYIYPRIDSSKCNEKFKDKATLTADKSSNTAYIQLNSLTSEDSAVYFCARWDYEGFDYWGQGTTLTVSS VL: DIVMTQSPATLSVTPGDRVSLSCRASQSISDYLHWYQQKSHESPRLLIKYASQSISGIPSRFSGSGSGSDFTLSINSVEPEDVGVYYCQNGHSFPPTFGSGTKLEIK | 15.7 nM | 0.0527 s⁻¹ | 3.36e+06 M⁻¹ s⁻¹ | 2.46 ng/mL | 682 ng/mL | 99.9% | 70.6% | 1820 |
| SCT-Aa15(h/h) (antibody, V domains shown, Full IgG format, chimeric: human IgG1 heavy chain constant region, human kappa light chain constant region) VH: QVQLQQSDAELVKPGPSVKISCKVSGSTFTDHTVHWMKQRPEQGLEWIGYVYPRDGSTRYNEKFKGKATLTADKSSSTAYMQLNSLTSEDSAVYFCARWDYEGFDYWGQGTTLTVSS VL: DIVMTQSPATLSVTPGDRVSLSCRASQNISDYLHWYQQKSHESPRLLIKYASQSISGIPSRFSGSGSGSDFTLSINSVEPEDVGVYYCQNGHSFPPTFGSGTKLKIK | 1.19 nM | 0.0062 s⁻¹ | 5.21e+06 M⁻¹ s⁻¹ | 3.71 ng/mL | 226 ng/mL | 34.8% | 32% | 141 |
| SCT-Aa14(m/m) (antibody, V domains shown, Full IgG format: mouse IgG1 heavy chain constant region, mouse kappa light chain constant region) VH: QVQLQQSDAELVKPGASVKISCKVSSYTFTDHTIHWMKQRPEQGLEWIGYIFPRDGSTKYNEKFKGKATLTADKSSSTAYMQLNSLTSEDSAVYFCARWDYEGFDYWGQGTTLTVSS VL: DIVMTQSPATLSVTPGDRVSLSCRASQNISDYLHWYQQKSHESPRLLIKYASQSISGIPSRFSGSGSGSDFTLSINSVEPEDVGVYYCQNGHSFPPTFGSGTKLEIK | 20.4 nM | 0.0376 s⁻¹ | 1.85e+06 M⁻¹ s⁻¹ | 2.52 ng/mL | 2340 ng/mL | 75.1% | 52.2% | 475 |
| SCT-Aa10(h/h) (antibody, V domains shown, Full IgG format, chimeric: human IgG1 heavy chain constant region, human kappa light chain constant region) VH: QVQLQQSDAELVKPGASVKISCKVSGYTFTDHTIHWMKQRPEQGLEWIGYIFPRDGNTKYNEKFKGKATMTADKSSSTAYMQLNSLTSEDSAVYFCARWDYEGFDCWGQGTTLTVSS VL: DIVMTQSPATLSVTPGDRVSLSCRASQSISDYLHWYQQKSHESPRLLIKYASQSISGIPSRFSGSGSGSDFTLSINSVEPEDVGVYFCQNGHSFPPTFGSGTKLEIK | 9.17 nM | 0.0284 s⁻¹ | 3.1e+06 M⁻¹ s⁻¹ | 2.86 ng/mL | 941 ng/mL | 85.5% | 57.9% | 495 |
| SCT-Aa10(m/m) (antibody, V domains shown, Full IgG format: mouse IgG1 heavy chain constant region, mouse kappa light chain constant region) VH: QVQLQQSDAELVKPGASVKISCKVSGYTFTDHTIHWMKQRPEQGLEWIGYIFPRDGNTKYNEKFKGKATMTADKSSSTAYMQLNSLTSEDSAVYFCARWDYEGFDCWGQGTTLTVSS VL: DIVMTQSPATLSVTPGDRVSLSCRASQSISDYLHWYQQKSHESPRLLIKYASQSISGIPSRFSGSGSGSDFTLSINSVEPEDVGVYFCQNGHSFPPTFGSGTKLEIK | 9.56 nM | 0.0224 s⁻¹ | 2.34e+06 M⁻¹ s⁻¹ | 2.57 ng/mL | 8030 ng/mL | 99.9% | 82.9% | 2960 |
| SCT-Aa01(h/h) (antibody, V domains shown, Full IgG format, chimeric: human IgG1 heavy chain constant region, human kappa light chain constant region) VH: DVQLQESGPGLVKPSQSLSLTCSVTGYSITSGYYWNWIRQFPGNKLEWMGYIRYDGSNNYNPSLKNRISITRDTSKNQFFLKLNSVTTEDTATYYCAPYDYDYAMDFWGQGTSVTVSS VL: DIQMTQSPASLSASVGETVTITCRASGNIHNYLAWYQQKQGKSPQLLVYNAKTLAHGVPSRFSGSGSGTQYSLKITSLQPEDFGTYYCQHFWSTPFTFGSGTKLEIK | 43.4 nM | 0.0355 s⁻¹ | 819000 M⁻¹ s⁻¹ | 3.38 ng/mL | – | 55.2% | 12.3% | 411 |

From patent publication US20210332145A1 (SINGLE CELL TECHNOLOGY, published 2021)
